Results on three molecules are retold here after US20190241629A1.

In data set [1] the target is recombinant factor B derived from Tachypleus tridentatus (Tachypleus tridentatus) (UniProt Q27081). Nature of the data set: cell-based or functional assay.
Data set [2] concerns the target T1, recombinant protein having proclotting enzyme activity of Limulus polyphemus (recombinant third protein).
T1 chain: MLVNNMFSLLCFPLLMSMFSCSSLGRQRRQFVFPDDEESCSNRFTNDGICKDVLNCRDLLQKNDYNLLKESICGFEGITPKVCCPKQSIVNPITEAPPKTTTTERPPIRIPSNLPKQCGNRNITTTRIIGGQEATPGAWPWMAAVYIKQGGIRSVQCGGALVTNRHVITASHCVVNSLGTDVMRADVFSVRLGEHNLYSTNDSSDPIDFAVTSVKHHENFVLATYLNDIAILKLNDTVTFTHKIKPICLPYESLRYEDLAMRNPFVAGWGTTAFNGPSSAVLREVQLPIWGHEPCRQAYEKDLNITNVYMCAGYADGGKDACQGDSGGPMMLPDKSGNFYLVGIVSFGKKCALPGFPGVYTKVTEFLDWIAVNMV

Data set [3] concerns the target T2, recombinant protein having factor B activity of Limulus polyphemus (recombinant second protein).
T2 chain: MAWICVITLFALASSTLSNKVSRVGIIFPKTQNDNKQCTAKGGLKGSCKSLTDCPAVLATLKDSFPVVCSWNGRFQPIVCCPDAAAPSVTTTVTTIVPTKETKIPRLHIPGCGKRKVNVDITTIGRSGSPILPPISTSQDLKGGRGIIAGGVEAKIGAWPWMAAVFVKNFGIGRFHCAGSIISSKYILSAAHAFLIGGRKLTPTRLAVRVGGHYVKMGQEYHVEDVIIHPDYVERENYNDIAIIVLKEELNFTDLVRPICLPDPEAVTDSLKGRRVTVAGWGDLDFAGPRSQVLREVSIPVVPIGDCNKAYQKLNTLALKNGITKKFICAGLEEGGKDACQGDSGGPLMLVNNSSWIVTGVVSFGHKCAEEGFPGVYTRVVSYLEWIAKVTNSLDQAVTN

Data set [4] has as its target T3, recombinant factor B derived from Tachypleus tridentatus, Q27081.
T3 chain: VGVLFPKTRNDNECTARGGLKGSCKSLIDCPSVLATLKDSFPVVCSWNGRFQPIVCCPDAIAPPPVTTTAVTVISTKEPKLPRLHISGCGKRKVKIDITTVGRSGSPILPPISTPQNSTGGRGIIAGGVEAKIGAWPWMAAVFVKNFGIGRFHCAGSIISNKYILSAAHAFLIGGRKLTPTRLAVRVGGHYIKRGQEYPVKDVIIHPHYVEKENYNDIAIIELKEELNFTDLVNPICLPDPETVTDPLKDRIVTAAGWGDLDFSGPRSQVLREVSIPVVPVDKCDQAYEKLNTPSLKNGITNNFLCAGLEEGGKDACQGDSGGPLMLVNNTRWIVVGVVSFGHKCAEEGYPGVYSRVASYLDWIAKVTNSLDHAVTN

Consider “recombinant factor C derived from the genus Tachypleus (Tachypleus tridentatus) (from UniProt P28175 26-1019) (enzyme)”, for which, in data set [1], the change in the absorbance in the cascade reaction system (TFC + TFB + TPCE + Boc-LGR-pNA) at endotoxin 0 EU/mL (blank) amounted to 0.51 mAbs/min and the change in the absorbance in the cascade reaction system (TFC + TFB + TPCE + Boc-LGR-pNA) at endotoxin 0.05 EU/mL came to 9.15 mAbs/min.

B1: recombinant protein having factor B activity of Limulus polyphemus (recombinant second protein) (protein)
chain: MAWICVITLFALASSTLSNKVSRVGIIFPKTQNDNKQCTAKGGLKGSCKSLTDCPAVLATLKDSFPVVCSWNGRFQPIVCCPDAAAPSVTTTVTTIVPTKETKIPRLHIPGCGKRKVNVDITTIGRSGSPILPPISTSQDLKGGRGIIAGGVEAKIGAWPWMAAVFVKNFGIGRFHCAGSIISSKYILSAAHAFLIGGRKLTPTRLAVRVGGHYVKMGQEYHVEDVIIHPDYVERENYNDIAIIVLKEELNFTDLVRPICLPDPEAVTDSLKGRRVTVAGWGDLDFAGPRSQVLREVSIPVVPIGDCNKAYQKLNTLALKNGITKKFICAGLEEGGKDACQGDSGGPLMLVNNSSWIVTGVVSFGHKCAEEGFPGVYTRVVSYLEWIAKVTNSLDQAVTN
As for B1, the “cleavage of synthetic substrate Boc-LGR-pNA (change in absorbance A405 nm) in the cascade reaction with endotoxin (0 and 0.05 EU/mL); FC + FB + PCE” value in data set [2] is listed as “when all the three types of recombinant proteins were included, cleavage of the synthetic substrate was observed”.

B2: recombinant factor C derived from Limulus polyphemus (recombinant first protein, protein having factor C activity) (protein)
chain: RGVDLGLCDDTRFECKCGDPGYVFNVPAKQCTYFYRWRPYCKPCDKLEAKDVCPKYKRCQECRAGLDSCVSCPPNKYGTWCSGECQCKNGGICDQRTGACTCRDRYEGVHCEILQGCPLLQSDPQVQEVKNPPNDPQTIDYSCSPGFKLKGVARITCLPNGQWSSFPPKCIRECSMVSSLEHGKVNSPSADLIEGATLRFSCDSPYYLIGQETLTCQGNGQWSGQIPQCQKLVFCPDLDPVSHAEHQVKIGLEQKYGQFPQGTEVTYTCTGNYFLMGLDTLKCNPDGSWSGTQPSCVKVADREVNCDSKAVDFLDDVGEPVRIHCPAGCSLTAGTVWGTAIYHELSSVCRAAIHAGKVPNSGGAVHVVNNGPYSDFLASDLNGIKSDELKSLAQSFRFDYVSSSTAGRKSGCPDGWFEIEENCVYVTSKQRAWERAQGVCTNMAARLAVLDKDVIPSSLTETLRGKGLATTWIGLHRLDADNHFIWELMDRSSVALNDSLTFWAPGEPGNETNCVYLDIQDQLQPVWKTKSCFQPSSFVCMMDLSDKNKAKCKDPGPLENGHAKLHGQSIDGFYAGSSVRYSCEVLHYLSGTETVSCTSNGTWSAPKPRCIKVITCQTPPVPSYGSVDIKPPSRTNSISRVGSPFLRLPRLPLPLARAAGPPPKPRSAPPSTVDLSSKVKLPEGHYRVGSQAIYTCESRYYELLGSQGRRCDSNGKWSGRPASCIPVCGRSDSPRSPFIVNGNSTEIGQWPWQAGISRWLADHNMWFLQCGGALLNEKWIITAAHCVTYSATAEIIDPSQFKFYLGKYYRDDSKDDDYVQVREAIEIHVNPNYDPGNLNFDIALIQLKTSVALTTRVQPICLPTDLTTRENLKEGALAVVTGWGLNENNTYSEMIQQAVLPVVAASTCEQGYQDSGLPLTVTENMFCAGYKQGRYDACSGDSGGPLVFADDSRTDRRWVLEGIVSWGSPNGCGKSNQYGGFTKVNVFLSWIRQFI
Regarding B2, in data set [3], the “cleavage of synthetic substrate Boc-LGR-pNA (change in absorbance A405 nm) in the cascade reaction with endotoxin (0 and 0.05 EU/mL); FC + FB + PCE” value is given as “when all the three types of recombinant proteins were included, cleavage of the synthetic substrate was observed”. In addition, in data set [4], the “activity in the cascade reaction system relative to TFC” value is “LFC showed the activity about 1.6 times (about 2.2 times when considering the difference in the protein amount) higher than TFC” and the “activity in the cascade reaction system relative to TFC, corrected for the difference in the protein amount” value is given as “LFC showed the activity about 1.6 times (about 2.2 times when considering the difference in the protein amount) higher than TFC”. In data set [1], the change in the absorbance in the cascade reaction system (LFC + TFB + TPCE + Boc-LGR-pNA) at endotoxin 0 EU/mL (blank) was 0.53 mAbs/min and the change in the absorbance in the cascade reaction system (LFC + TFB + TPCE + Boc-LGR-pNA) at endotoxin 0.05 EU/mL was found to be 14.3 mAbs/min.
